Here are results for 1 molecule from paper PMC6083498, “F-CphI represents a new homing endonuclease family using the Endo VII catalytic motif”.

For this data set, the target named is T1, F-CphI (cyanophage S-PM2, UniProt Q7Y4H4 1-142).
T1 sequence: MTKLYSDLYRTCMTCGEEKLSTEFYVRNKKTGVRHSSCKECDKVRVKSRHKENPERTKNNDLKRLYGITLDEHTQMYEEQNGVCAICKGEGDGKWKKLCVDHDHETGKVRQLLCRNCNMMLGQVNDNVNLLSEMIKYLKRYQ
Put plainly: EMSA; no Mg2+ added; Kd value only in figure; EMSA: 10 mM Tris-HCl pH 8.0, 2% glycerol, 2 ug/ml poly-dIdC, 2 ug/ml BSA, 0.2 mM DTT, on ice 15 min, 2 nM labeled DNA; 8% native PAGE in 1X TBE. Particulars: protein: recombinant; tags: C-terminal Myc-His (pBAD/Myc-HisB; in frame with downstream His-tag); label: 5'-32P on top strand; blunt.

B1: SBM4-60Top duplex (dsDNA)
DNA 1: TGGTCTGGGTATGGAAGTGATGCACGAGCGCAACGCTCACAACTTCCCTCTCGACCTTGC
DNA 2: GCAAGGTCGAGAGGGAAGTTGTGAGCGTTGCGCTCGTGCATCACTTCCATACCCAGACCA
As to B1, the binding result is recorded as “binds”.
